According to IntAct's records for PubMed 10466729:

B1: Phytochrome B (Arabidopsis thaliana (Mouse-ear cress)), P14713 (parent)
chain: MVSGVGGSGGGRGGGRGGEEEPSSSHTPNNRRGGEQAQSSGTKSLRPRSNTESMSKAIQQYTVDARLHAVFEQSGESGKSFDYSQSLKTTTYGSSVPEQQITAYLSRIQRGGYIQPFGCMIAVDESSFRIIGYSENAREMLGIMPQSVPTLEKPEILAMGTDVRSLFTSSSSILLERAFVAREITLLNPVWIHSKNTGKPFYAILHRIDVGVVIDLEPARTEDPALSIAGAVQSQKLAVRAISQLQALPGGDIKLLCDTVVESVRDLTGYDRVMVYKFHEDEHGEVVAESKRDDLEPYIGLHYPATDIPQASRFLFKQNRVRMIVDCNATPVLVVQDDRLTQSMCLVGSTLRAPHGCHSQYMANMGSIASLAMAVIINGNEDDGSNVASGRSSMRLWGLVVCHHTSSRCIPFPLRYACEFLMQAFGLQLNMELQLALQMSEKRVLRTQTLLCDMLLRDSPAGIVTQSPSIMDLVKCDGAAFLYHGKYYPLGVAPSEVQIKDVVEWLLANHADSTGLSTDSLGDAGYPGAAALGDAVCGMAVAYITKRDFLFWFRSHTAKEIKWGGAKHHPEDKDDGQRMHPRSSFQAFLEVVKSRSQPWETAEMDAIHSLQLILRDSFKESEAAMNSKVVDGVVQPCRDMAGEQGIDELGAVAREMVRLIETATVPIFAVDAGGCINGWNAKIAELTGLSVEEAMGKSLVSDLIYKENEATVNKLLSRALRGDEEKNVEVKLKTFSPELQGKAVFVVVNACSSKDYLNNIVGVCFVGQDVTSQKIVMDKFINIQGDYKAIVHSPNPLIPPIFAADENTCCLEWNMAMEKLTGWSRSEVIGKMIVGEVFGSCCMLKGPDALTKFMIVLHNAIGGQDTDKFPFPFFDRNGKFVQALLTANKRVSLEGKVIGAFCFLQIPSPELQQALAVQRRQDTECFTKAKELAYICQVIKNPLSGMRFANSLLEATDLNEDQKQLLETSVSCEKQISRIVGDMDLESIEDGSFVLKREEFFLGSVINAIVSQAMFLLRDRGLQLIRDIPEEIKSIEVFGDQIRIQQLLAEFLLSIIRYAPSQEWVEIHLSQLSKQMADGFAAIRTEFRMACPGEGLPPELVRDMFHSSRWTSPEGLGLSVCRKILKLMNGEVQYIRESERSYFLIILELPVPRKRPLSTASGSGDMMLMMPY
partner: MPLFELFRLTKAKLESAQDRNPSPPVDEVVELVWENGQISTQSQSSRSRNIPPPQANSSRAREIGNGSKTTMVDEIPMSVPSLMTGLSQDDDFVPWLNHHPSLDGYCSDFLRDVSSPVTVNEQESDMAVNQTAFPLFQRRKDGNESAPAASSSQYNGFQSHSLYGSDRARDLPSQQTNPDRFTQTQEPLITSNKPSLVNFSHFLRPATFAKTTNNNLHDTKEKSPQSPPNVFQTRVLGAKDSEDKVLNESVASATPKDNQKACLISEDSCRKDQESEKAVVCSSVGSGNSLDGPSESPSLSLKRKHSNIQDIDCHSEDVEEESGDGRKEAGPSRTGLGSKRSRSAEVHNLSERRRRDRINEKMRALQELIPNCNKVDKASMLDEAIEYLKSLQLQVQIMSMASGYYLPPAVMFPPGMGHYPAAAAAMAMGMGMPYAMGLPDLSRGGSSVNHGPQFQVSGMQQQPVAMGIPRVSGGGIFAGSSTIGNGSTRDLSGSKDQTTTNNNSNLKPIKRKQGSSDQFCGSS

Variants of: B1
Conditions: with pif3_arath PIF3, O80536

Effect of a mutation on the interaction, decreasing interaction:
G767R
E812K
A750V
